Experimental data as given in the domain aggregation screens of Martell et al. (2025).

Test: soluble fraction after stress (log2 fold change); higher = more stays soluble; pooled small domains, quantitative proteomics
Details: stress: pH 4
Summary of the method: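 Aggregation propensity here comes from the fold change in the soluble amount of each small protein domain after acid stress, measured in pooled custom libraries by high-throughput quantitative proteomics. The acid stress was pH 4. On the log2 scale, higher values mean more of the domain stayed soluble.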

Row | Sequence | soluble fraction (log2)
1 | HMPIMDSDDKYEALGIPQEWIAVVKKAGYQTVEALKAVENPNKLHQELSVMNKKEKLGLAGLTPEMVKAWL | -0.301
2 | HMPINPKVKQIYDTLKDGGADVGSEKEFNDYFFAKGKDGYNNRKEVFNTLREGGADAGKSYEEFAGWLGL | 0.206
3 | HMPIPIESEISRSPGQSIYAFVQQHYGRSGRSPADMRALVGLILRLNRQIRTPLLIPFGLVVVRPT | -0.253
4 | HMPIRVGDAFESLAGVFPDEYNKALRKSTKKPVFFVPVKVEAGSGALRQKGKITFIVKDGRIDAIQIAL | -0.514
5 | HMPISQGATVKHNANMRKGASTKYKVTGVLQEGEEVKILSQSNGWYKIQNSDNEKGWTYNTHINASDK | -0.0274
6 | HMPKHFIDFSEGEVVSITDGPFKGFDGAISEIDNQKGKVKVMVSMFGRDTSVELDALQVKKV | -0.364
7 | HMPKITTIHIDPEKISKVIGPGGKTVKKIIEETGAKIDIEDTGKIFIAAVNTEAANKAIDMINGIVA | -0.0168
8 | HMPKLPIIYVLDGHVNKNALTTSGKNKVWIEHELKKHHINSIKDVLIAMTDTEGKFYYQLYD | -0.0791
9 | HMPKLSNNHMAVWQAIRSRTAKGEPSTRAVIRDDLKAAGMDTSKHFSRWLTKLIDLGMVVKDGENLSIR | 0.219
10 | HMPKMISPAQIKAIGAKTNNIAKASGVEQAQVYQSAVAHLGINNKSTKELTSQEASKVIEYLSTL | 0.158
11 | HMPKPMKATKITLQQEPRIRVDFTYDPLKVQQIKTISGARWSKSLKAWHIPYTKEAFNQLKKLFPNVEIEV | 0.22
12 | HMPKSVRQSFVYSPMYRDVEYLADFLRNNNKDDSSVSASGDKLVYYGTADEIARVKSVLKGVDV | -0.51
13 | HMPLIPIAIELARHALPSLIGAIAGDKSEKVAKEVVDAALKTTGKTTPDEALHALQADPQLAHEYRLSLL | -0.466
14 | HMPLKLIDVYLGRHGKKRYDVFKETGLSQQTLASANGKPAAALTGRILQAIGRTVGETPGRVLDEMLMIEQ | 0.0887
15 | HMPLLADLPNLLRKVLKQHPGRVVDVDLERGRQGREIYHVRVLQENGQVRGLFVDASTGELVS | 0.0524
16 | HMPLQLPEPMAELARNGETARLAEALKQGLDIDLRDGKGNTLLMIAAYQGRAETVAMLLKAGA | -1.42
17 | HMPLSLESVSEGGRNDTAARIAGYLIAKGLNVDFARFFLQSWNTKNKPPLDDTEIDTIVNSIMKTHERKNQ | -0.476
18 | HMPLTPATADAGRFVKQDRKYIRLLAKRYNFTHGDIKSEIDRVSAVLSSNGIDRVPLFLYKEYLEQYLAG | -0.924
19 | HMPLTRSDVKRIQLWLMAHGYDIGSPDGVFGDKSNRAANAFLSQQGRSLETVTLGKLYDILEAN | -0.941
20 | HMPMINLYQRLNLPPTASRAEIEAALAQYRSELSTAEIRGVQEWLLVNEVRHRYDAKLRQEQPSFFI | -0.427
21 | HMPMTLGENIARLRTQKDWSQGDLADALGISRQSISKWETDTSIPELEKLIKLSELFGVTLDQLVRGE | -0.615
22 | HMPNILLSVKDASVAISVSSKMVRLLIASGRLKAVNLGKRMTRISLQELTDFAQRQGGNVVLP | -0.514
23 | HMPNLAAAIGARVTIRLREASGGFRDIVGTLQRFGDGVNELLNSKGQIISFSEDEIAIWREIK | -0.326

Row | Sequence | soluble fraction (log2)
24 | HMPNQIKQIAVNTASVSDIATIPGISFDFAKEIWEFRILRQKIGSLSELQKIEGMTASKYALIELYLHI | -0.41
25 | HMPNSIKAPAYLHNIARIYDHVLIDVEKASSAYEKLIKKYPNHPLSINAKLYLENAFNRSDEELLNMIKEN | -0.624
26 | HMPNYVEMLRLHEAGFSLRQIAKLVSSGRNTVTRTVNIAQEKELSYEEIAQWSSEELENMFKPD | -0.515
27 | HMPPDIKVVGVTVASDPRASFAMLSSNGKTLSYRVNDLIEGTEYHLIKVEAAAITIATAGGQSTQIAF | -0.156
28 | HMPPFTYHLERAKRKTVGFIVDERGVTVRAPRWVSVSEIEKMLQTKEAWIQKKLTEFHNWQKE | 0.111
29 | HMPPHGHIVELLPEQDFGRIETGDGRLVYFHRNSVLDGDFAQLAVGDAVRFAEEMGERGPQASSVHVE | -0.948
30 | HMPPLKYLKVKSYLEAVAVKAESAMRMPTVRELMNQFNVSLATVNRALSELENDGVIVRRQGSGIVAAG | ≥ 0.43
31 | HMPPSGPWEQDPPSEAQLKPFNEAMKRTADIDVDLYEKAKKALNDGTITKGNIYDWINREDSPWVLQDGS | -0.468
32 | HMPPSQRVNRILSLAGITSRRKADEYILEGRVTVNGEVLKEPGAKAVWGTDDIRVDGKPIPALS | 0.275
33 | HMPPSVAETLKRLRRHKSLSLEELAQMSGVSRSMLSQIERDATNPTVATLWRITAALGVSIDEVLGV | -0.893
34 | HMPPTEQVYRSHVPPQYDGFPIEKYFTTRFSYQDVEEWSRQILAGKIEVNGKTALIGQILSASDLTVTRA | -0.811
35 | HMPQETPIPKSEIQSYDEIWLEPISTDNILRNELRGWYHVKDRWVENEFGNRFYLDTYASKWLAFPS | -0.752
36 | HMPQKIVIQKGVVIKKRERSDAWQIYITVKGKKPIRKSANTDNVEKAKQMALTLFAEKNYKVENNLPIQ | -0.0334
37 | HMPQLSNEEQKIVDALEGSDGKQINLITVETNIPMARLMSVLFEMEMRGIVKSLNGARYKLN | -0.026
38 | HMPQTDDSEPLGKYGRMRLAYLKNQRPVLYNQMLLNGTLWPHLQDVQKTAYEWLERTMTTLLDK | -0.581
39 | HMPRDQQENIYLLEKGKRLYEEHLGDQRQIIGHRIMIFERILESQDHAQIRRAQSEFAEFLSHYDG | 0.111
40 | HMPRDYYAVLEVSVSSTPVQIRQAYQRLARRYSPDVNFLDRDTEALFEEIVEAYRVLSNPTARTLYDRG | -3.04
41 | HMPREQQENVYLLEKAKRLYEEYLGDQRQTIGHALAQFERVLESQDPAAIRRAQKEFGEFLERYDG | -0.139
42 | HMPREVKLPPDLLDALEASPEAKAFFLQLSYTHQKEYAQWIEEAKQEATRQRRLEKTVQMLLEGRRT | -0.0407
43 | HMPRFDINFKVGEVVTIKGGSFDGQQGEISEIDHEHGKIKVMLEVLGRLTPVEVEHTEIEKI | -0.623
44 | HMPRKLDDQLQEQIRYLKSNYPRMSAAGIFRQLQDNGSIKHGDVSESTINRYVNLLSIEMKTTT | 0.149
45 | HMPRNMTFAIRGEYITLDALLKAVGAADSGAQAKHRIAEGEVTVDGVVETRKTRKLRGGETVVVDDLAVVL | -1.4
46 | HMPRQREVPDVSGWTEQHAKVYLEALGYRVKVIYLEVSSFDKGLVQETSPAKGSKVEEGDTIDLRVSNQE | 0.299

Row | Sequence | soluble fraction (log2)
47 | HMPRSLGADLRAIRKGRRLTLTDMAEALDRSVGWVSQVERDISTPSISDLRRMAEILDVPVSLLFG | -1.59
48 | HMPSARELLATNIVRLRKEKGWSQEDLALEAGLHRTFVAHVERHARNISLDNIERLANALQVNVHILLL | -1.26
49 | HMPSEDELAERLRGAIRQGDILNEGRMPPERALAEHFGVSRARLRLALGLLQEDGTIYRRHGQGTFAT | -0.0169
50 | HMPSIGKNILYYRKKRNMTIDELSKKSGVSKSMLSQVEQEKTNPTVVTVWKIARSLDVSINQLLQT | 0.136
51 | HMPSKKHARWIELEARKFMADNEDAVSDLHELRTRAANFAALKTSTLPVDQHRAIVAGFVARVNELGRRI | -0.19
52 | HMPSLSPDETVVVDALRQQNDMQINMISVKTNLPIARLSAILFEMELKGVLKPLAGGVYHLL | -0.0639
53 | HMPSPEMLKETEKRKAEEIYRSQINLFIDDYHRLKGQYPLLEDIIDNKKDSIPIEILREISISILKNYFE | -0.926
54 | HMPSPEVELLEDLLSKTDEAEVEAAFHENQALVNDEFKAMLGSLIQELSKTQEADPEIIARIRFIQKLT | -1.27
55 | HMPSREDFAYDSIKEAILSGELLPNQKISLSDLANKLGISIIPVNSAVGRLVAEGLVRQDPHHSPYVV | -0.31
56 | HMPSRPIQVASFSKEDNAKRAAEALAKIGVTATPQKSEKAGKAVWGVVVTGDDAMLQKIKDAGFADAYFL | 0.22
57 | HMPSTKDGIKEFLSSGAMKGIGRKTASAIVSRFGIDTLKIIEQEPQRLTEVSGIGKKTAQRIAEAFGKH | 0.201
58 | HMPSTVRVPDVAETSLSEAKKTIEESGLEVGAIHKVNNDTVKKNHVIKTSPTIGSAKKEGSAIDIYVSKG | 0.201
59 | HMPSTVSVPDVAGSSLSEAKTTIKSSGLKVGTVHKVSSDTVESGYVIKTSPTAGSSKKEGSSIDIYVSKG | -0.026
60 | HMPTANFPAMAEALKKQYGPPTGEEETSWTHRLGGVFDIKIQSWNTPQGEMVLRSRGAAMDAGML | 0.283
61 | HMPTEPTARELEVTTLLAQGLSNREIAGALFISEHTVRNHLGHVFSKLGVSSRTQAVVRAGQLGWLR | -0.798
62 | HMPTKSDLLQWIKDRASKMGGAFTNSGAYALADAGVDGPRALSSEINKLLTYVNWERSVEADDVIRL | -0.296
63 | HMPTLTPFDVARIENAINPRLNLETAAKLKPWIAAGYTAQETADGTGFSPDTVKKYAAIFRK | 0.146
64 | HMPTQTEELRRRIVADVNAGEPGAKLGSERELAERYGTSRSSLRQVLAALQEAGLIDRVIGRSGGIFISH | 0.33
65 | HMPTSILEKILNSAAEQFTRYGFKTITMDDIARHAGVSKKTLYQHFETKLDIIVAAVTHFHTMKF | -1.65
66 | HMPTYEEAKTYLKAAFEHIVAAGRDVGELVEFAFAKSGDAVAPYLRRFLSDVHEGRITIQGLTESAKLAV | -0.463
67 | HMPVEQVWHIAEAGKTKGPFSRASMGRMSADGALTRDTLVWTAGQDGWKKAADVTALATLFT | -0.0499
68 | HMPVFYATNRQKTTIHNLKRKKGLDDDAYRATIYSFTHGRTDSSKYMYKYEAAELIQKWLDPE | -0.157
69 | HMPVGVPGVVYNTDSLNVRKGAGTNYDIVSKLKRGSVIEVLEQTAVDGTVWGRIAEGWVNMEYVSL | -0.363
